According to US20200209238A1, “OPTIMIZING DIAGNOSTICS FOR GALACTOFURANOSE CONTAINING ANTIGENS” (The Johns Hopkins University, priority 2017, published 2020):

Legend:
[1] = tested on: Aspergillus ethanol precipitate (EP); assay: rIntL-1 binding to Aspergillus ethanol precipitate, ELISA; details: buffer with 10 mM CaCl2
Method: Wells of a microtiter plate were coated with 10 μg/ml of EP antigen and blocked with a blocking buffer containing 0.1% BSA in IntL-ELISA buffer (20 mM HEPES pH7.4; 150 mM NaCl; 10 mM CaCl2); 0.1% Tween-20. Ref: Wesener et al. (2015) Nature Structural & Molecular Biology, 22(8):603). Recombinant human IntL-1 (rintL-1) was serially diluted tenfold in blocking buffer starting at 10^−6 M, and incubated on the EP-coated plate for 2 h at 30° C., followed by washes with IntL-ELISA buffer. The bound IntL was detected by an anti-omentin Rabbit IgG ab (Millipore) diluted 1:1000 in blocking buffer and incubated at 30° C. for 2 h. Wells were again washed and incubated with a goat anti-Rabbit IgG-AP at 1:1000 for 1 h at 30° C. Following another wash, the color was developed by AP substrate for 30 minutes at 37° C.
Conidia from Aspergillus fumigatus were counted and adjusted to 10^6/mL in Sabouraud's Dextrose broth, and grown for 6 hours at 37° C. to germinate (forming hyphae). The collection of swollen, germinating conidia and growing hyphae from already-germinated conidia were killed with heat at 90° C. for 1 h. The fungal material (killed conidia and hyphae) was pelleted by centrifugation, resuspended in IntL-ELISA blocking buffer, and incubated with 10^−7 M rIntL-1 (FLAG-tagged) in presence of 10 μg/mL of either MAb476 or an irrelevant, isotype control antibody mouse IgM for 2 h at 30° C. […]

[2] = tested on: Aspergillus fumigatus conidia and hyphae; assay: rIntL-1 binding to conidia and hyphae, fluorescence microscopy
Method: Conidia from Aspergillus fumigatus were counted and adjusted to 10^6/mL in Sabouraud's Dextrose broth, and grown for 6 hours at 37° C. to germinate (forming hyphae). The collection of swollen, germinating conidia and growing hyphae from already-germinated conidia were killed with heat at 90° C. for 1 h. The fungal material (killed conidia and hyphae) was pelleted by centrifugation, resuspended in IntL-ELISA blocking buffer, and incubated with 10^−7 M rIntL-1 (FLAG-tagged) in presence of 10 μg/mL of either MAb476 or an irrelevant, isotype control antibody mouse IgM for 2 h at 30° C. Following washes with IntL-ELISA buffer, the material was resuspended in IntL-ELISA blocking buffer and incubated with a 1:50 diluted anti-FLAG tag antibody conjugated to the red fluorochrome phycoerythrin (PE). Again, after washes, the stained material was resuspended in IntL-ELISA blocking buffer, transferred to chamber slides and observed under a fluorescent microscope. The inventors performed experiments wherein Aspergillus ethanol precipitate and whole cells (conidia and hyphae) were exposed to rIntL-1 and then a sandwich assay using Rabbit polyclonal antibodies to INTL-1 and goat anti-rabbit antibodies with a fluorescent ligand were performed in buffer comprising 10 mM CaCl2). […] Thus, IntL-1 could be the competitive agent which is interfering with the inventors' antibodies to galF.

[3] = Western blot of urine with mAb476; format: binding, human
Method: Studies were performed using urine collected from control patients (pooled) and patient who had Aspergillus infection (VU7). The samples were run in a reducing SDS polyacrylamide gel electrophoresis (PAGE), and the resolved proteins were transferred to a nylon membrane for performing a Western Blot. Some samples used concentrated urine (denoted by “c”) using an Amicon concentrator or were pretreated by desalting columns (denoted by “ds”).

[4] = Immunoprecipitation of urine with mAb476-coated dynabeads; format: binding, human; details: normal urine
Method: Studies were performed to identify the proteins that are bound by mAb476 after immunoprecipitation, using mass spectrophotometry. To enrich sample detection of moieties specifically binding to mAb476, urines were incubated with superparamagnetic dynabeads coated with mAb476 and a mouse control antibody. mAb476 reactive material was eluted with 50 mM glycine (pH 2.5-3.0). […] Reactivity to mAb476 eluates was confirmed by sandwich ELISA. Eluates were then run on SDS-PAGE gels to check for band patterns, and in-solution mass spectrometry analysis was performed. Analysis detected the microbial antigen CelA/Aspf7 (a galF-containing 0-glycan).

B1: rINTL-1: Recombinant human IntL-1 (intelectin-1), FLAG-tagged in the cell binding test (protein)
chain: TDEANTYFKEWTCSSSPSLPRSCKEIKDECPSAFDGLYFLRTENGVIYQTFCDMTSGGGGWTLVASVHENDMRGKCTVGDRWSSQQGSKAVYPEGDGNWANYNTFGSAEAATSDDYKNPGYYDIQAKDLGIWHVPNKSPMQHWRNSSLLRYRTDTGFLQTLGHNLFGIYQKYPVKYGEGKCWTDNGPVIPVVYDFGDAQKTASYYSPYGQREFTAGFVQFRVFNNERAANALCAGMRVTGCNTEHHCIGGGGYFPEASPQQCGDFSGFDWSGYGTHVGYSSSREITEAAVLLFYR
binding to Aspergillus ethanol precipitate [1]: bound Aspergillus ethanol precipitate with high affinity | binding to whole cells (conidia & hyphae) ([2]; 10^−7 M FLAG-tagged rIntL-1, heat-killed Af293 conidia and hyphae): binds to whole cells

B2: mAb476: galF-specific monoclonal antibody, VH domain of SEQ ID NO:9 and VL domain of SEQ ID NO:10 (antibody, V domains shown)
VH: EVQLEESGGGLVQPGGSLRLSCATSGFTFSDFYMEWVRQTPGERLEWIAASRNKANDYTAEYSASVKGRFTVFRDTSQNILYLQMNALRAEDTAAYYCARDADYGKTFSWYFDVWGAGTTVTVSS
VL: DIVMTQDELSNPVTSGESVHISCRSSKSLLYKDGKTYLNWFLQRPGQSPQLLIYLMSTRASGVSDRFSGSGSGTDFTLEISRVKAEDVGVYYCQQLVEYPLTFGAGTKLELK
reactive bands in Western blot ([3]; healthy human pooled urine): no reactive bands | molecular weight of reactive bands in Western blot ([3]; urine from patients with aspergillosis): 26 to 35 kDa | effect on cellular rINTL-1 binding (galF recognition) ([2]; 10 μg/mL antibody with 10^−7 M rIntL-1): GalF recognition is reduced | binding in immunoprecipitation [4]: No mAb476 binding occurred
